Legend:
[1] = target: T1, Recombinant Human VEGF165 (human, UniProt P15692-4 27-191); experiment: SPR, Biacore 3000, hVEGF immobilized on sensor chip, mutant applied at various concentrations
T1 construct: Isoform VEGF165; also called hVEGF
Excerpt: Examples of the determination-calculation system of surface plasmon resonance can include, but not limited to, Biacore system (GE Healthcare Japan Corp.). Procedures for the method using Biacore system are as follows: target molecules are immobilized onto a sensor chip of Biacore system by amine coupling; the target molecules are contacted with peptides at a plurality of peptide concentrations; the interaction therebetween is detected by surface plasmon resonance; a series of association and dissociation reactions is drawn in a sensorgram with time as the abscissa against the amount of binding (RU) as the ordinate; the sensorgram drawn at the plurality of peptide concentrations is fit to a 1:1 Langmuir model using BIAevaluation software (manufactured by GE Healthcare Japan Corp.) to calculate various rate parameters; and the dissociation constant is calculated from various rate parameters thus calculated.
The gene of the hVEGF-binding TACI_d2 mutant (No. 9 in FIG. 4: SEQ ID NO: 10 in the Sequence Listing) obtained in Example 2 was amplified by PCR and inserted to a vector pET-32a for expression in Escherichia coli (Novagen, Merck KGaA). […] The affinity of the mutant was determined by a surface plasmon resonance method using Biacore 3000 (GE Healthcare Japan Corp.). […] The dissociation constant of the mutant for hVEGF was determined from the obtained sensorgram.

[2] = target: T1, Recombinant Human VEGF165; experiment: phage panning and phage ELISA on hVEGF
Recombinant Human TNF-α = target: T2, Recombinant Human TNF-α (human, UniProt P01375 77-233); experiment: phage panning and phage ELISA on hTNF-α
T2 construct: also called hTNF-α
T2 sequence (P01375 77-233 limits assumed): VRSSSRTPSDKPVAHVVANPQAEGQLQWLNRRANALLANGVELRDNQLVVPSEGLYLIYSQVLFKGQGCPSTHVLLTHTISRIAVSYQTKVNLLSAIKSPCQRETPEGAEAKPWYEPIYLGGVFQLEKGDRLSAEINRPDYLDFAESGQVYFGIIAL

[3] = target: T3, Recombinant Human EGF R/Fc Chimera, CF (human, UniProt P00533 25-645; P01857 100-330 = IgG part); experiment: phage panning and phage ELISA on hEGFR/Fc (TACI_d2 mutant binding to the extracellular domain of human EGFR)
T3 construct: range 25-645;range 100-330; R&D systems product; also called hEGFR/Fc

[4] = target: T4, Recombinant Human EphA2, CF (human, UniProt P29317 25-534); experiment: phage ELISA, hEphA2 immobilized on a Maxisorp plate, two-fold dilutions of phage stock, anti-M13-HRP, OD405 nm [A) (1]
T4 construct: Bought recombinant protein; also called hEphA2; recombinant hEphA2
T4 sequence (P29317 25-534 limits assumed): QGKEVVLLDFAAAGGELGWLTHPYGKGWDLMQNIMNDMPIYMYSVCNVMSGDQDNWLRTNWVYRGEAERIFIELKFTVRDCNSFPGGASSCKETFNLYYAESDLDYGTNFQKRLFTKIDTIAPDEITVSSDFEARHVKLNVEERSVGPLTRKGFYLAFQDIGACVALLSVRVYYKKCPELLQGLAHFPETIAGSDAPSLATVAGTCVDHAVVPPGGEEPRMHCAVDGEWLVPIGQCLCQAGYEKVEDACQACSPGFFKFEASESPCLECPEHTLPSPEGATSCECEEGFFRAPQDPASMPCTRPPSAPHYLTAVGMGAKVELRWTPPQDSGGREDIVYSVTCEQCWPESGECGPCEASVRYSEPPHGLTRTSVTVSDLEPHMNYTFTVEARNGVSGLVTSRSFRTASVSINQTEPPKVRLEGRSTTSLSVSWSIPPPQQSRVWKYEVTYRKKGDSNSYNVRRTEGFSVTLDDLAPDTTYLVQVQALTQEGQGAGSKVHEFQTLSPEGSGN
Procedure: (§1) As to 3 clones (α-EphA2 #1 to #3: corresponding to SEQ ID NOs: 3 to 5, respectively, in the Sequence Listing and to Nos. 2 to 4, respectively in FIG. 4) selected from the Escherichia coli colonies after the final round of panning with hEphA2 as a target molecule, an Escherichia coli suspension with OD_{600 nm}=0.3 was prepared using 2×YT/Amp/1% Glu. The Escherichia coli cells of each clone were shake-cultured at 37° C. and allowed to grow until OD_{600 nm}=0.5. A sufficient amount of helper phages M13K07 was added thereto to infect the cells at 37° C. for 30 minutes. After addition of 2×YT/Amp/Kan/0.25 mM IPTG, the helper phage-infected Escherichia coli was shake-cultured overnight at 22° C. 20% PEG/2.5 M NaCl solution was added to the recovered culture supernatant to precipitate phages. The precipitated phages were suspended in PBS. This phage stock solution and a series of two-fold dilutions with PBS were used in phage ELISA. An Escherichia coli TG-1 strain having a pCANTAB 5E vector containing the wild-type TACI_d2 gene was also subjected to the same operation as above to prepare phages.
(§2) TACI_d2 mutant-displaying phages were added to these Maxisorp plates and reacted for 2 hours. Each Maxisorp plate was washed with TBST. Then, an Anti-M13 antibody diluted 5000-fold was added thereto. After washing of the Maxisorp plate with TBST again, the amount of a phage bound with the protein solid-phase immobilized on the plate was detected as absorbance at a wavelength of 405 nm using ELISA POD.

[5] = target: T5, IgG-Free, Protease-Free Bovine Serum Albumin (bovine, UniProt P02769 25-607); experiment: phage ELISA, BSA immobilized on a Maxisorp plate, two-fold dilutions of phage stock, anti-M13-HRP, OD405 nm [A) (2]
T5 construct: also called BSA
T5 sequence (P02769 25-607 limits assumed): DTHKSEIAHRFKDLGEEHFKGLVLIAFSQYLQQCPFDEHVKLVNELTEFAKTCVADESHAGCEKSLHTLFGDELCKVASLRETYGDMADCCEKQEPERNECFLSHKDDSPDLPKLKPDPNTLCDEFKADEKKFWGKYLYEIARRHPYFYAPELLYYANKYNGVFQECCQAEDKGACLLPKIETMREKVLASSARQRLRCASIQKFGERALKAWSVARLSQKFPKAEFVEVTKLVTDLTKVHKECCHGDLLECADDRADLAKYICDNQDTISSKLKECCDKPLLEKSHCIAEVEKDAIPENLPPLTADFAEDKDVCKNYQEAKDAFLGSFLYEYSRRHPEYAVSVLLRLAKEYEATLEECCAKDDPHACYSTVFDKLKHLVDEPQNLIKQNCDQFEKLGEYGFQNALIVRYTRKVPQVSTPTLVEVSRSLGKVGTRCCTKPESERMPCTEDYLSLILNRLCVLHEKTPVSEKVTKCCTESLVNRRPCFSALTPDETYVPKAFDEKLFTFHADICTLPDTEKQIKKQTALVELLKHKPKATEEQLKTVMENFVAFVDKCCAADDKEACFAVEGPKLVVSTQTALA
Procedure: as §1
as §2, with “Each Maxisorp plate was washed with TBST. Then, an Anti-M13 antibody diluted 5000-fold was added thereto.” left out

[6] = target: T6, human EphA2 expressed on cell surface (human, UniProt P29317 24-976); experiment: flow cytometry, phage stock on transfected HEK293T cells, anti-M13 antibody and fluorescein anti-mouse IgG, FL1 [B) (4]
T6 construct: whole, on cells; also called human EphA2-expressing cells
T6 sequence (P29317 24-976): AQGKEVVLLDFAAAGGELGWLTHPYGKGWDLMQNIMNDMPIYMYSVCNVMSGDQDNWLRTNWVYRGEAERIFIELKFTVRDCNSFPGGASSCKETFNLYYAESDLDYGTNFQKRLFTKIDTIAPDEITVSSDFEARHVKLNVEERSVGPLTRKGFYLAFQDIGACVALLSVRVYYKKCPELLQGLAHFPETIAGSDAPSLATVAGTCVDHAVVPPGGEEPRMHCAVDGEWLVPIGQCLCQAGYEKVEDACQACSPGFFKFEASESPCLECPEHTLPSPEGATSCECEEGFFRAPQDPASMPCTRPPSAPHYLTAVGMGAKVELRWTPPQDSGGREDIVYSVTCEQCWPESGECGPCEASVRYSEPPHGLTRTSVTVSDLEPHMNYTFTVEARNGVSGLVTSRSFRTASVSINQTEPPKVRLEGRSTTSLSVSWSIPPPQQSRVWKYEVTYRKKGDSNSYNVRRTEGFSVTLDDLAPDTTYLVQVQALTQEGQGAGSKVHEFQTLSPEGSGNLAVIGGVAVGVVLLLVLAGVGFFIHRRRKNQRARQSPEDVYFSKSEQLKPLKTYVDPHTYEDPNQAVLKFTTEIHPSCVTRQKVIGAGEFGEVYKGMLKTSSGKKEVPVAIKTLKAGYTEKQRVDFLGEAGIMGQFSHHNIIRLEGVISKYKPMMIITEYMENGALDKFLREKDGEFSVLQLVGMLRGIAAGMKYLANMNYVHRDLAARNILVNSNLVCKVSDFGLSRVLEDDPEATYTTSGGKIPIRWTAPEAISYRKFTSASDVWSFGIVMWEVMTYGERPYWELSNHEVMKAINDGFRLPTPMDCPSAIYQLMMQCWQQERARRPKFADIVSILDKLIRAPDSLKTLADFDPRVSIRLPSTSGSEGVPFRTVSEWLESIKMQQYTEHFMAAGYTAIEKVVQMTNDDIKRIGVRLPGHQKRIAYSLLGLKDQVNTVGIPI
Procedure: as §1, with “The” for “As to 3 clones (α-EphA2 #1 to #3: corresponding to SEQ ID NOs: 3 to 5, respectively, in the Sequence Listing and to Nos. 2 to 4, respectively in FIG. 4) selected from the Escherichia coli colonies after the final round of panning with hEphA2 as a target molecule, an Escherichia coli suspension with OD_{600 nm}=0.3 was prepared using 2×YT/Amp/1% Glu. The”
(§3) The transfected cells were recovered. The recovered cells were suspended in a FACS buffer (PBS containing 5% FBS) and applied to a nylon mesh. The solution was dispensed in an amount of 5×10⁵ cells/well to 96 Well Cell Culture Cluster Round Bottom With Lid (manufactured by Costar, Corning Inc.) and centrifuged to remove a supernatant. The phage stock solution prepared in the paragraph 1) of Example 4 was added to the resulting cells at a concentration of 50 μL/well, and the mixture was left standing at 4° C. for 30 minutes. […] Fluorescently stained cells were detected.

[7] = target: T6, human EphA2 expressed on cell surface; experiment: flow cytometry, phage stock on transfected HEK293T cells, anti-M13 antibody and fluorescein anti-mouse IgG, FL1 [A) (2]
Procedure: as §1, with “The” for “As to 3 clones (α-EphA2 #1 to #3: corresponding to SEQ ID NOs: 3 to 5, respectively, in the Sequence Listing and to Nos. 2 to 4, respectively in FIG. 4) selected from the Escherichia coli colonies after the final round of panning with hEphA2 as a target molecule, an Escherichia coli suspension with OD_{600 nm}=0.3 was prepared using 2×YT/Amp/1% Glu. The”
as §3

[8] = target: T6, human EphA2 expressed on cell surface; experiment: flow cytometry, phage stock on transfected HEK293T cells, anti-M13 antibody and fluorescein anti-mouse IgG, FL1 [A) (1]
Procedure: as §1, with “The” for “As to 3 clones (α-EphA2 #1 to #3: corresponding to SEQ ID NOs: 3 to 5, respectively, in the Sequence Listing and to Nos. 2 to 4, respectively in FIG. 4) selected from the Escherichia coli colonies after the final round of panning with hEphA2 as a target molecule, an Escherichia coli suspension with OD_{600 nm}=0.3 was prepared using 2×YT/Amp/1% Glu. The”
as §3

T1 sequence (P15692 other isoform, or with tags, fused parts or gaps limits assumed): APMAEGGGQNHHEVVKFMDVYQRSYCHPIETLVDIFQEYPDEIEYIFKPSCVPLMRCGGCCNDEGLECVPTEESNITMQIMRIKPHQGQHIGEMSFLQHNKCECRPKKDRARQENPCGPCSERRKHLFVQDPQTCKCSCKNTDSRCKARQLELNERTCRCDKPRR

B1: hVEGF-binding TACI_d2 mutant (No. 9 in FIG. 4), purified monomer (designed binder)
chain: SLSCRKEQGKMYDLYGFDCRSCASMCGKHPDLCAYFCEN
notes: Expressed from pET-32a in E. coli Origami B; thioredoxin tag and His tag removed by thrombin cleavage; monomer peak of size exclusion chromatography used; also called the mutant
[1]
  Kd: 14 µM

## SLSCRKEQGKMYDLYGFDCRSCASMCGKHPDLCAYFCEN (designed binder, The purified free form is m26) [human VEGF-binding peptide (2), phage-displayed]
[2]
  binding result: binds

## SLSCRKEQGKMYMVWTQDCKSCASWCGAHPVACAYFCEN (designed binder) [human VEGF-binding peptide (3)]
[2]
  binding result: binds

## SLSCRKEQGKQYMAGHFDCNSCASRYGHHPLMCAYFCEN (designed binder) [human TNFα-binding peptide (1)]
Recombinant Human TNF-α
  binding result: binds

## SLSCRKEQGKSYGAIMYDCSSCASYCGEHPWHCAYFCEN (designed binder) [human EGFR-binding peptide (1)]
[3]
  binding result: binds

## SLSCRKEQGKFYDHLLRDCISCASICGQHPKQCAYFCENKLR (receptor, UniProt O14836 68-109, looked up, also called WT) [wild-type TACI_d2]
[4]
  binding result: no binding
[5]
  binding result: no binding
[6]
  binding result: no binding

## SLSCRKEQGKDYMVFGQDCHSCASWCGKHPVACAYFCEN (designed binder) [human VEGF-binding peptide (6)]
[2]
  binding result: binds

## SLSCRKEQGKSYTSEWFDCASCASKYGKHPLVCAYFCEN (designed binder) [human TNFα-binding peptide (3)]
Recombinant Human TNF-α
  binding result: binds

## SLSCRKEQGKHYLLKEYDCDSCASECGYHPDYCAYFCEN (designed binder, also called α-EphA2 #3) [α-EphA2 TACI_d2 #3]
[4]
  binding result: binds

## SLSCRKEQDKTYIEYGFDCRSCASGCGGHPLMCAYFCEN (designed binder) [human TNFα-binding peptide (2)]
Recombinant Human TNF-α
  binding result: binds

## SLSCRKEQGKIYNQYGFDCKSCASWCGKHPDMCAYFCEN (designed binder) [human VEGF-binding peptide (4)]
[2]
  binding result: binds

## SLSCRKEQGKMYLLKEWDCASCASACGNHPHYCAYFCEN (designed binder, also called α-EphA2 #2) [α-EphA2 TACI_d2 #2]
[4]
  binding result: binds
[7]
  binding result: binds

## SLSCRKEQGKIYMTWHDDCHSCASLCGSHPLFCAYFCEN (designed binder) [human VEGF-binding peptide (5)]
[2]
  binding result: binds

## SLSCRKEQGKQYLLREWDCDSCASECGSHPHYCAYFCEN (designed binder, also called α-EphA2 #1) [α-EphA2 TACI_d2 #1]
[4]
  binding result: binds
[8]
  binding result: binds

## SLSCRKEQGKWYMTWESDCKSCASWCGSHPFDCAYFCEN (designed binder) [human VEGF-binding peptide (1)]
[2]
  binding result: binds

## SLSCRKEQGKNYIHQQWDCASCASECGGHPNYCAYFCEN (designed binder) [human EGFR-binding peptide (3)]
[3]
  binding result: binds

## SLSCRKEQGKEYGAIAWDCSSCASYCGAHPFECAYFCEN (designed binder) [human EGFR-binding peptide (2)]
[3]
  binding result: binds
